What was measured:
NP110SM cells = assay: Differentiation of clonal embryonic progenitor line NP110SM in HyStem beads, Illumina microarray gene expression; type: cell-based, human
Procedure: Differentiation medium is high glucose DMEM (CellGro Cat. No. 15-013-CV) with Pyruvate, 1 mM (Gibco Cat. 11360), Pen:Strep 100U/ml:100 ug/ml (Gibco Cat. No. 504284), Glutamax 2 mM (Gibco Cat. No. 35050), Dexamethasone 0.1 uM (Sigma, St. Louis, Mo., Cat. No. D1756-100), L-Proline 0.35 mM (Sigma Cat. No. D49752), 2-phospho-L-Ascorbic Acid 0.17 mM (Sigma, Cat. No. 49792, Fluka), and ITS Premix (BD, Franklin Lakes, N.J., sterile Cat. No. 47743-628) with a final concentration 6.25 ug/ml insulin, 6.25 ug/ml transferrin, 6.25 ng/ml selenious acid, serum albumin 1.25 mg/ml, 5.35 ug/ml linoleic acid. In various differentiation conditions, the Differentiation medium is supplemented with various growth factors or other differentiation factors as described herein.
HyStem-C (BioTime, Inc. Alameda, Calif.) is a matrix composed of thiol-modified gelatin and thiolated hyaluronan crosslinked in vivo or in vitro with (polyethylene glycol diacrylate (PEGDA). We observed that clonal human embryonic progenitor cell lines such as those described in the present invention, could be efficiently differentiated in high-density cultures of said crosslinked collagen and hyaluronate in the following manner. HyStem-C® (BioTime, CA, USA) is reconstituted following the manufacturer's instructions. Briefly, the HyStem component (10 mg of thiol-modified hyaluronan) is dissolved in 1.0 ml of degassed deionized water for approximately 20 min to prepare a 1% w/v solution. The Gelin-S® component (10 mg of thiol-modified gelatin (BioTime)) is dissolved in 1.0 ml of degassed deionized water to prepare a 1% w/v solution, and polyethylene glycol diacrylate (10 mg of PEGDA) is dissolved in 0.5 ml of degassed deionized water to prepare a 2% w/v solution. Then, HyStem (1 ml, 1% w/v) is mixed with Gelin-S (1 ml, 1% w/v) immediately before use. Pelleted cells are resuspended in the recently prepared HyStem:Gelin-S (1:1 v/v) mix described above. Upon the addition of the PEGDA cross-linker, the cell suspension, at a final concentration of 2.0×10^7 cells/ml is aliquoted (25 μl/aliquot) into six-well plates (Corning® 3516; VWR, PA, USA) after partial gelation. Following complete gelation (20 min), Differentiation Medium is added to each well. Plates were then placed in a humidified incubator at 37° C. with ambient O2 and 10% CO2, and the cells were fed three-times weekly. At the desired time point, hydrogel constructs were either fixed and processed for immunohistochemical analysis or lysed using RLT (Qiagen, CA, USA) with 1% beta-mercaptoethanol for total RNA to analyze transcript expression using quantitative real-time PCR (qRT-PCR) and/or whole-genome microarray.
Total RNA was extracted directly from cells growing in 6-well plates or 10 cm tissue culture dishes using Qiagen RNeasy mini kits according to the manufacturer's instructions. RNA concentrations were measured using a Beckman DU530 or Nanodrop spectrophotometer and RNA quality was determined by denaturing agarose gel electrophoresis or using an Agilent 2100 bioanalyzer. Whole-genome expression analysis was carried out using Illumina Human Ref-8v3 or Human HT-12 v4 BeadArrays, and RNA levels for certain genes were confirmed by qRT-PCR. For the Illumina BeadArrays, total RNA was linearly amplified and biotin-labeled using Illumina TotalPrep kits (Life Technologies, Temecula, Calif., USA), and cRNA was quality-controlled using an Agilent 2100 Bioanalyzer. The cRNA was hybridized to Illumina BeadChips, processed, and read using a BeadStation array reader according to the manufacturer's instructions (Illumina, San Diego, Calif., USA). Values of less than 120 relative fluorescence units (RFUs) were considered as nonspecific background signal.
The line NP110SM was then exposed to differentiation in the BAT cell differentiation protocols described herein. […]

[1] = system: Bone marrow-derived mesenchymal stem cells (MSCs); assay: Differentiation of bone marrow-derived MSCs in HyStem-C beads, FABP4 expression; type: cell-based; settings: 14 days, 50 ng/mL BMP2, or 10 ng/mL BMP4, or 100 ng/mL BMP7
Procedure: The Gelin-S® component (10 mg of thiol-modified gelatin (BioTime)) is dissolved in 1.0 ml of degassed deionized water to prepare a 1% w/v solution, and polyethylene glycol diacrylate (10 mg of PEGDA) is dissolved in 0.5 ml of degassed deionized water to prepare a 2% w/v solution. Then, HyStem (1 ml, 1% w/v) is mixed with Gelin-S (1 ml, 1% w/v) immediately before use. Pelleted cells are resuspended in the recently prepared HyStem:Gelin-S (1:1 v/v) mix described above. Upon the addition of the PEGDA cross-linker, the cell suspension, at a final concentration of 2.0×10^7 cells/ml is aliquoted (25 μl/aliquot) into six-well plates (Corning® 3516; VWR, PA, USA) after partial gelation. Following complete gelation (20 min), Differentiation Medium is added to each well. Plates were then placed in a humidified incubator at 37° C. with ambient O2 and 10% CO2, and the cells were fed three-times weekly. At the desired time point, hydrogel constructs were either fixed and processed for immunohistochemical analysis or lysed using RLT (Qiagen, CA, USA) with 1% beta-mercaptoethanol for total RNA to analyze transcript expression using quantitative real-time PCR (qRT-PCR) and/or whole-genome microarray.

[2] = NP110SM, 14 days HyStem beads, 50 ng/ml BMP4, FIG. 15 sample 6

B1: BMP4: Bone Morphogenetic Protein 4, TGF-beta superfamily member (protein, UniProt P12644 293-408, looked up)
Bone morphogenetic protein 4: SPKHHSQRARKKNKNCRRHSLYVDFSDVGWNDWIVAPPGYQAFYCHGDCPFPLADHLNSTNHAIVQTLVNSVNSSIPKACCVPTELSAISMLYLDEYDKVVLKNYQEMVVEGCGCR
viability as measured by RNA yields and levels of the BAT markers (NP110SM cells; NP110SM, 50 ng/ml of BMP4, 5 μm rosiglitazone, embedded in HyStem beads, 14-21 days): highest viability | ADIPOQ expression (NP110SM cells; [2]): markedly up-regulating | C19ORF80 expression (NP110SM cells; [2]): markedly up-regulating | UCP1 expression (NP110SM cells; [2]): low or undetectable level | expression of C19ORF80 transcript (NP110SM cells; NP110SM, HyStem beads supplemented with 10 ng/ml BMP4, FIG. 2): highest expression | viability of differentiating NP110SM cells as evidenced by RNA yields (NP110SM cells; addition of 50 ng/ml BMP4 to 5.0 μM rosiglitazone): appeared to improve the viability | differentiation into adipocytes as evidenced by expression of FABP4 [1]: caused the differentiation of the cells into adipocytes
